According to US20180364250A1 (COLORADO STATE UNIVERSITY RESEARCH FOUNDATION, published 2018):

Key:
[1] = biological target: T1, Ubiquitin (free, untagged) (human, UniProt P0CG48 1-76); experiment: relative fluorescence competition against 5 nM Atto532-tagged ubiquitin on 600 nM tSR
T1 construct: also called free ubiquitin; unconjugated ubiquitin protein

[2] = biological target: T2, Nedd8 (human, UniProt Q15843 1-76); experiment: direct titration, relative fluorescence of 10 nM Alexa488 tSR
T2 construct: also called free Nedd8; Nedd8 protein

[3] = biological target: T2, Nedd8; experiment: fluorescence intensity, free Nedd8 titrated into Atto532-tIV
[4] = biological target: T1, Ubiquitin (free, untagged); experiment: fluorescence intensity of the Atto532-tagged sensor against free ubiquitin concentration, single-site fit

T2 sequence (Q15843 1-76 limits assumed): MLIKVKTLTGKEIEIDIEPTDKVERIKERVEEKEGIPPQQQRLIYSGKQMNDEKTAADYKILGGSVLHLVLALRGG

B1: tSR chimeric polypeptide sensor (designed binder)
chain: MPSSHHHHHHSSGLVPRGSHMTEEEQIAYAMQMSLREAGGGSDLLCKKGCGYYGNPAWQGFCSKCWREEAHKCAAERAAAE
notes: His-tag leader, S5a^UIM, linker, Ruz; also called tSR chimeric peptide universal sensor
B1: binds [1].

B2: Alexa488-tagged tSR (designed binder)
chain: B1 chain
modifications: Alexa488 fluorophore, attachment site not stated
notes: also called Alexa488 tSR; fluorophore-tagged tSR
B2: no binding [2].

B3: Atto532-tagged tIV L1 Cys (designed binder)
chain: MGSSHHHHHHSSGLVPRGSHMKQEVQAWDGEVRQVSKHAFSLKQLDNPARIPPSGWKCSKCDMRENLWLNLTDGSILCGRRYFDGSGGNNHAVEHYRETGYPLAVKLGTITPDGADVWSYDEDDMVLDPSLAEHLSHFGIDMLKMQKGSCAAAEEAELDLKAAIQESLREA
modifications: Atto532 fluorophore on the Cys of linker 1 (the bold C of the 2nd table)
notes: Two domains: IsoT^ZnF and Vps27^UIM; also called Atto532-tIV
For B3, the Kd [3] was 9.4 µM and the binding result [4] was “binds”.

B4: Atto532-tagged IsoT^ZnF (S227C) (designed binder)
chain: MPSSHHHHHHSSGLVPRGSHMKQEVQAWDGEVRQVSKHAFSLKQLDNPARIPPSGWKCSKCDMRENLWLNLTDGSILCGRRYFDGCGGNNHAVEHYRETGYPLAVKLGTITPDGADVYSYDEDDMVLDPSLAEHLSHFGIDMLKMQK
modifications: Atto532 fluorophore on the Cys of S227C (the bold C of the 2nd table)
B4: binds [4].
